Laboratory results published in CN115141273A.

Target: 猫杯状病毒 (Feline Calicivirus, FCV), BJH13株 (Feline calicivirus strain BJH13)
Assay: cell-based or functional assay

B1: 2G3单克隆抗体 (monoclonal antibody against feline calicivirus, from hybridoma 2G3, CGMCC NO.45148) (antibody, V domains shown)
VH: QVQLQQSGPELVKPGTSVKLSCQASGYTFTNYYMWWVKQRPGQGLEWIGQINPNNDNTDFNEKFRNKATLTVDKSSSTAYMQLSRLTSEDSAVYYCTRRAYWGQGTLVTVSA
VL: GVLLTQAPLSLPVSLGDQASISCRSSQYVVYINGNSYLEWYLQKPGQSPKLLIYKVSNRFSGVPDRFSGSGSGTDFTLKISRVEAEDLGIYYCFQGSHVPYTFGGGTKLEIR
With B1 the 中和抗体效价 (neutralising antibody titre of the injection) was 1280 titre (1:x), the 中和效价 (neutralisation titre of hybridoma supernatant) was 220 to 320 titre (1:x) and the 小鼠腹水中和效价 (neutralisation titre of ascites) was 25100 titre (1:x).
